Assays:
[1] = biological target: T1, CitAGacS649 (chimeric protein: GacS649 with its PDC domain replaced by the PDC domain of CitA from K (Pseudomonas aeruginosa | Klebsiella …, UniProt P52687 55-173, amine-reactive AlexaFluor 488 label (in the MST))); experiment: MST; 0.01 M citrate
[2] = biological target: T1, CitAGacS649 (chimeric protein: GacS649 …); experiment: MST; no citrate

B1: RetSHK (histidine kinase region of the sensor histidine kinase RetS, residues 413-649) (domain or fragment)
chain: QTKAEFLAKISHEIRTPMNGVLGMTELLLGTPLSAKQRDYVQTIHSAGNELLTLINEILDISKLESGQIELDEVQFDLNALIEDCLDIFRVKAEQQRIELISFTQPQVPRVIGGDPTRLRQVVLSLLDNAFKQTEEGEILLVVALDDQGETPRLRIAVQDSGHPFDAKEREALLTAELHSGDFLSASKLGSHLGLIIARQLVRLMGGEFGIQSGSSQGTTLSLTLPLDPQQLENPTA
[1]
  Kd: 46 µM
[2]
  Kd: 11 µM
